{"source": "paper PMC5815892", "about": "(Clinical cancer research : an official journal of the …, 2017)", "key": {"[1]": {"target": "purified fibulin-3 (human) (Homo sapiens (Human)., UniProt Q12805)", "sequence (Q12805 18-493)": "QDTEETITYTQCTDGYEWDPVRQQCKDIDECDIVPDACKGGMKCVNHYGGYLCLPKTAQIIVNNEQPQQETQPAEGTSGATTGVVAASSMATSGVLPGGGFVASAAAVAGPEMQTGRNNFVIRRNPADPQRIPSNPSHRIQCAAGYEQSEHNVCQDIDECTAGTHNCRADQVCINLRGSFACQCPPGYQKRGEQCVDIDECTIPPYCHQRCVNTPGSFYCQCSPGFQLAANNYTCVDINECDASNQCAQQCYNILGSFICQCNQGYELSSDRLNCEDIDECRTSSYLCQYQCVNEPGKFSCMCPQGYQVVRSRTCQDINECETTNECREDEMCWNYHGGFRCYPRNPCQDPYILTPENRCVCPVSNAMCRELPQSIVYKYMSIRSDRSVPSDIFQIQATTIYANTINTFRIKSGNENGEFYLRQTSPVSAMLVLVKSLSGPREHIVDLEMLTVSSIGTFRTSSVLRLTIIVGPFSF", "experiment": "SPR"}, "[2]": {"target": "T1, free DSL-like peptide from human fibulin-3 (Thr25-Glu47) (Homo sapiens (Human).)", "T1 chain": "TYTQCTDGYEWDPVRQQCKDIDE", "experiment": "ELISA"}}, "data": [{"binder": "mAb428.2 (anti-fibulin-3 clone mAb428.2.3C11.H11.G3) (antibody, V domains shown) VH: QIQLVQSGPELKKPGETVKISCKASGYSFTTYGMSWVKQAPGKGLKWMGWINTYSGVPTYADDFKGRFAFFLETSASTAYLQINNLKNEDTATYFCARWVDYWGQGTTLTVSS VL: DIKMTQSPSSMYASLGERVTITCKASQDIKSYLSWHQQKPWKSPKTLIYYATSLADGVPSRFSGSGSGQDYSLTISSLESDDTATYYCLQHGKSPYTFGGGTKLEIK", "values": [{"measurement": "Kd", "setting": "[1]", "result": "5 ± 1", "unit": "nM"}, {"measurement": "binding result", "setting": "[2]", "result": "binds"}]}]}
